20 molecules from patent US20210388087A1 (Chugai, published 2021) can be followed below.

B1: H183/L072 VL H34A (antibody, name in Kabat numbering, V domains shown)
VH: QVQLVESGGGLVQPGRSLRLSCAASGFTFSNAWMHWVRQAPGKGLEWVAQIKDKGNAYAAYYAPSVKGRFTISRDDSKNSIYLQMNSLKTEDTAVYYCHYVHYASASTVLPAFGVDAWGQGTTVTVSS
VL: DIVMTQSPLSLPVTPGEPASISCQASQELVHMNRNTYLAWYQQKPGQAPRLLIYKVSNRFPGVPDRFSGSGSGTDFTLKISRVEAEDVGVYYCAQGTSVPFTFGQGTKLEIK
B2: H183/L072 VL H34E (antibody, name in Kabat numbering, V domains shown)
VH: QVQLVESGGGLVQPGRSLRLSCAASGFTFSNAWMHWVRQAPGKGLEWVAQIKDKGNAYAAYYAPSVKGRFTISRDDSKNSIYLQMNSLKTEDTAVYYCHYVHYASASTVLPAFGVDAWGQGTTVTVSS
VL: DIVMTQSPLSLPVTPGEPASISCQASQELVHMNRNTYLEWYQQKPGQAPRLLIYKVSNRFPGVPDRFSGSGSGTDFTLKISRVEAEDVGVYYCAQGTSVPFTFGQGTKLEIK
B3: H183/L072 VL L27bF (antibody, name in Kabat numbering, V domains shown)
VH: QVQLVESGGGLVQPGRSLRLSCAASGFTFSNAWMHWVRQAPGKGLEWVAQIKDKGNAYAAYYAPSVKGRFTISRDDSKNSIYLQMNSLKTEDTAVYYCHYVHYASASTVLPAFGVDAWGQGTTVTVSS
VL: DIVMTQSPLSLPVTPGEPASISCQASQEFVHMNRNTYLHWYQQKPGQAPRLLIYKVSNRFPGVPDRFSGSGSGTDFTLKISRVEAEDVGVYYCAQGTSVPFTFGQGTKLEIK
B4: H183/L072 VL H34G (antibody, name in Kabat numbering, V domains shown)
VH: QVQLVESGGGLVQPGRSLRLSCAASGFTFSNAWMHWVRQAPGKGLEWVAQIKDKGNAYAAYYAPSVKGRFTISRDDSKNSIYLQMNSLKTEDTAVYYCHYVHYASASTVLPAFGVDAWGQGTTVTVSS
VL: DIVMTQSPLSLPVTPGEPASISCQASQELVHMNRNTYLGWYQQKPGQAPRLLIYKVSNRFPGVPDRFSGSGSGTDFTLKISRVEAEDVGVYYCAQGTSVPFTFGQGTKLEIK
B5: H183/L072 VL H34T (antibody, name in Kabat numbering, V domains shown)
VH: QVQLVESGGGLVQPGRSLRLSCAASGFTFSNAWMHWVRQAPGKGLEWVAQIKDKGNAYAAYYAPSVKGRFTISRDDSKNSIYLQMNSLKTEDTAVYYCHYVHYASASTVLPAFGVDAWGQGTTVTVSS
VL: DIVMTQSPLSLPVTPGEPASISCQASQELVHMNRNTYLTWYQQKPGQAPRLLIYKVSNRFPGVPDRFSGSGSGTDFTLKISRVEAEDVGVYYCAQGTSVPFTFGQGTKLEIK
B6: H183/L072 VL K50S (antibody, name in Kabat numbering, V domains shown)
VH: QVQLVESGGGLVQPGRSLRLSCAASGFTFSNAWMHWVRQAPGKGLEWVAQIKDKGNAYAAYYAPSVKGRFTISRDDSKNSIYLQMNSLKTEDTAVYYCHYVHYASASTVLPAFGVDAWGQGTTVTVSS
VL: DIVMTQSPLSLPVTPGEPASISCQASQELVHMNRNTYLHWYQQKPGQAPRLLIYSVSNRFPGVPDRFSGSGSGTDFTLKISRVEAEDVGVYYCAQGTSVPFTFGQGTKLEIK
B7: H183/L072 VL K50R (antibody, name in Kabat numbering, V domains shown)
VH: QVQLVESGGGLVQPGRSLRLSCAASGFTFSNAWMHWVRQAPGKGLEWVAQIKDKGNAYAAYYAPSVKGRFTISRDDSKNSIYLQMNSLKTEDTAVYYCHYVHYASASTVLPAFGVDAWGQGTTVTVSS
VL: DIVMTQSPLSLPVTPGEPASISCQASQELVHMNRNTYLHWYQQKPGQAPRLLIYRVSNRFPGVPDRFSGSGSGTDFTLKISRVEAEDVGVYYCAQGTSVPFTFGQGTKLEIK
B8: H183/L072 VL H34N (antibody, name in Kabat numbering, V domains shown)
VH: QVQLVESGGGLVQPGRSLRLSCAASGFTFSNAWMHWVRQAPGKGLEWVAQIKDKGNAYAAYYAPSVKGRFTISRDDSKNSIYLQMNSLKTEDTAVYYCHYVHYASASTVLPAFGVDAWGQGTTVTVSS
VL: DIVMTQSPLSLPVTPGEPASISCQASQELVHMNRNTYLNWYQQKPGQAPRLLIYKVSNRFPGVPDRFSGSGSGTDFTLKISRVEAEDVGVYYCAQGTSVPFTFGQGTKLEIK
B9: H183/L072 VL H34Q (antibody, name in Kabat numbering, V domains shown)
VH: QVQLVESGGGLVQPGRSLRLSCAASGFTFSNAWMHWVRQAPGKGLEWVAQIKDKGNAYAAYYAPSVKGRFTISRDDSKNSIYLQMNSLKTEDTAVYYCHYVHYASASTVLPAFGVDAWGQGTTVTVSS
VL: DIVMTQSPLSLPVTPGEPASISCQASQELVHMNRNTYLQWYQQKPGQAPRLLIYKVSNRFPGVPDRFSGSGSGTDFTLKISRVEAEDVGVYYCAQGTSVPFTFGQGTKLEIK
B10: H183/L072 VL K50D (antibody, name in Kabat numbering, V domains shown)
VH: QVQLVESGGGLVQPGRSLRLSCAASGFTFSNAWMHWVRQAPGKGLEWVAQIKDKGNAYAAYYAPSVKGRFTISRDDSKNSIYLQMNSLKTEDTAVYYCHYVHYASASTVLPAFGVDAWGQGTTVTVSS
VL: DIVMTQSPLSLPVTPGEPASISCQASQELVHMNRNTYLHWYQQKPGQAPRLLIYDVSNRFPGVPDRFSGSGSGTDFTLKISRVEAEDVGVYYCAQGTSVPFTFGQGTKLEIK
B11: H183/L072 VL K50H (antibody, name in Kabat numbering, V domains shown)
VH: QVQLVESGGGLVQPGRSLRLSCAASGFTFSNAWMHWVRQAPGKGLEWVAQIKDKGNAYAAYYAPSVKGRFTISRDDSKNSIYLQMNSLKTEDTAVYYCHYVHYASASTVLPAFGVDAWGQGTTVTVSS
VL: DIVMTQSPLSLPVTPGEPASISCQASQELVHMNRNTYLHWYQQKPGQAPRLLIYHVSNRFPGVPDRFSGSGSGTDFTLKISRVEAEDVGVYYCAQGTSVPFTFGQGTKLEIK
B12: H183/L072 VL L27bE (antibody, name in Kabat numbering, V domains shown)
VH: QVQLVESGGGLVQPGRSLRLSCAASGFTFSNAWMHWVRQAPGKGLEWVAQIKDKGNAYAAYYAPSVKGRFTISRDDSKNSIYLQMNSLKTEDTAVYYCHYVHYASASTVLPAFGVDAWGQGTTVTVSS
VL: DIVMTQSPLSLPVTPGEPASISCQASQEEVHMNRNTYLHWYQQKPGQAPRLLIYKVSNRFPGVPDRFSGSGSGTDFTLKISRVEAEDVGVYYCAQGTSVPFTFGQGTKLEIK
B13: H183/L072 VL K50T (antibody, name in Kabat numbering, V domains shown)
VH: QVQLVESGGGLVQPGRSLRLSCAASGFTFSNAWMHWVRQAPGKGLEWVAQIKDKGNAYAAYYAPSVKGRFTISRDDSKNSIYLQMNSLKTEDTAVYYCHYVHYASASTVLPAFGVDAWGQGTTVTVSS
VL: DIVMTQSPLSLPVTPGEPASISCQASQELVHMNRNTYLHWYQQKPGQAPRLLIYTVSNRFPGVPDRFSGSGSGTDFTLKISRVEAEDVGVYYCAQGTSVPFTFGQGTKLEIK
B14: H183/L072 VL L27bD (antibody, name in Kabat numbering, V domains shown)
VH: QVQLVESGGGLVQPGRSLRLSCAASGFTFSNAWMHWVRQAPGKGLEWVAQIKDKGNAYAAYYAPSVKGRFTISRDDSKNSIYLQMNSLKTEDTAVYYCHYVHYASASTVLPAFGVDAWGQGTTVTVSS
VL: DIVMTQSPLSLPVTPGEPASISCQASQEDVHMNRNTYLHWYQQKPGQAPRLLIYKVSNRFPGVPDRFSGSGSGTDFTLKISRVEAEDVGVYYCAQGTSVPFTFGQGTKLEIK
B15: H183/L072 VL H34S (antibody, name in Kabat numbering, V domains shown)
VH: QVQLVESGGGLVQPGRSLRLSCAASGFTFSNAWMHWVRQAPGKGLEWVAQIKDKGNAYAAYYAPSVKGRFTISRDDSKNSIYLQMNSLKTEDTAVYYCHYVHYASASTVLPAFGVDAWGQGTTVTVSS
VL: DIVMTQSPLSLPVTPGEPASISCQASQELVHMNRNTYLSWYQQKPGQAPRLLIYKVSNRFPGVPDRFSGSGSGTDFTLKISRVEAEDVGVYYCAQGTSVPFTFGQGTKLEIK
B16: H183/L072 VL H34D (antibody, name in Kabat numbering, V domains shown)
VH: QVQLVESGGGLVQPGRSLRLSCAASGFTFSNAWMHWVRQAPGKGLEWVAQIKDKGNAYAAYYAPSVKGRFTISRDDSKNSIYLQMNSLKTEDTAVYYCHYVHYASASTVLPAFGVDAWGQGTTVTVSS
VL: DIVMTQSPLSLPVTPGEPASISCQASQELVHMNRNTYLDWYQQKPGQAPRLLIYKVSNRFPGVPDRFSGSGSGTDFTLKISRVEAEDVGVYYCAQGTSVPFTFGQGTKLEIK
B17: H183/L072 VL L27bA (antibody, name in Kabat numbering, V domains shown)
VH: QVQLVESGGGLVQPGRSLRLSCAASGFTFSNAWMHWVRQAPGKGLEWVAQIKDKGNAYAAYYAPSVKGRFTISRDDSKNSIYLQMNSLKTEDTAVYYCHYVHYASASTVLPAFGVDAWGQGTTVTVSS
VL: DIVMTQSPLSLPVTPGEPASISCQASQEAVHMNRNTYLHWYQQKPGQAPRLLIYKVSNRFPGVPDRFSGSGSGTDFTLKISRVEAEDVGVYYCAQGTSVPFTFGQGTKLEIK
B18: H183/L072 VL H34L (antibody, name in Kabat numbering, V domains shown)
VH: QVQLVESGGGLVQPGRSLRLSCAASGFTFSNAWMHWVRQAPGKGLEWVAQIKDKGNAYAAYYAPSVKGRFTISRDDSKNSIYLQMNSLKTEDTAVYYCHYVHYASASTVLPAFGVDAWGQGTTVTVSS
VL: DIVMTQSPLSLPVTPGEPASISCQASQELVHMNRNTYLLWYQQKPGQAPRLLIYKVSNRFPGVPDRFSGSGSGTDFTLKISRVEAEDVGVYYCAQGTSVPFTFGQGTKLEIK
B19: H183/L072 VL H34K (antibody, name in Kabat numbering, V domains shown)
VH: QVQLVESGGGLVQPGRSLRLSCAASGFTFSNAWMHWVRQAPGKGLEWVAQIKDKGNAYAAYYAPSVKGRFTISRDDSKNSIYLQMNSLKTEDTAVYYCHYVHYASASTVLPAFGVDAWGQGTTVTVSS
VL: DIVMTQSPLSLPVTPGEPASISCQASQELVHMNRNTYLKWYQQKPGQAPRLLIYKVSNRFPGVPDRFSGSGSGTDFTLKISRVEAEDVGVYYCAQGTSVPFTFGQGTKLEIK
B20: H183/L072 VL K50E (antibody, name in Kabat numbering, V domains shown)
VH: QVQLVESGGGLVQPGRSLRLSCAASGFTFSNAWMHWVRQAPGKGLEWVAQIKDKGNAYAAYYAPSVKGRFTISRDDSKNSIYLQMNSLKTEDTAVYYCHYVHYASASTVLPAFGVDAWGQGTTVTVSS
VL: DIVMTQSPLSLPVTPGEPASISCQASQELVHMNRNTYLHWYQQKPGQAPRLLIYEVSNRFPGVPDRFSGSGSGTDFTLKISRVEAEDVGVYYCAQGTSVPFTFGQGTKLEIK

This assay concerns the target T1, Human CD3eg linker (human).
T1 construct: Single-chain construct; also called recombinant human CD3
T1 chain: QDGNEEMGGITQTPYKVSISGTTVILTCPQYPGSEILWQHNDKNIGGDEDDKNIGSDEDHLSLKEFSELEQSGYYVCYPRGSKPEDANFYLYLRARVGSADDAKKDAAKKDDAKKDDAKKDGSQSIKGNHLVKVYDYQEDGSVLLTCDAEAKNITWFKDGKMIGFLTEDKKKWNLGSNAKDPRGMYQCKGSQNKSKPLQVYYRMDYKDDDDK
The assay is described as follows: SPR; fold vs parent H183/L072.
B1: the “fold change of affinity” value came out at 0.6 fold. For the molecule B2, the “fold change of affinity” value amounted to 0 fold. With B3 the figure was 0.3 fold.

Consider B4, for which the “fold change of affinity” value amounted to 0.3 fold. As for B5, the figure is 0.4 fold; as for B6, 0 fold. As for B7, the figure is 0 fold; as for B8, 0.2 fold; as for B9, 0 fold. As to B10, the “fold change of affinity” value was 0 fold.

B11: the “fold change of affinity” value was 0 fold. As for B12, the figure is 0 fold; as for B13, 0 fold.

B14: the “fold change of affinity” value was determined as 0 fold. Take B15: the “fold change of affinity” value worked out at 0.5 fold.

Consider B16, for which the “fold change of affinity” value came out at 0 fold. As to B17, the “fold change of affinity” value was 0.7 fold. Consider B18, for which the “fold change of affinity” value is 0 fold. In the case of B19, the “fold change of affinity” value is 0.4 fold. In the case of B20, the “fold change of affinity” value came out at 0 fold.
